Experimental data: article PMC6697681, “The predominance of nucleotidyl activation in bacterial phosphonate biosynthesis” (Nature Communications, 2019)

Substrate: NCCP(=O)(O)O
Experiment: purified protein
Conditions: saturating CTP (4 mM), 7 mM MgCl2, room temperature
Text: coupled pyrophosphate release assay (EnzChek, MESG/PNP), initial rates on Tde-PntC (Tde1415)

B1: Tde-PntC (Tde1415) (Treponema denticola ATCC 35405) (protein)
chain: MIKQAVILAGGLGSRLKDKTKTMPKGFLEIGGTAIVEQSVQKLLAHGIEKIVIGTGHCNEYYDNLAKKYPAIITVKNENYANTGSMGTLEVCASFVNESFLLLESDLIYDSAGLFSLINDERKNLILASGATKSGDEVYLEADEKNCLTGLSKNRDALKNIFGELVGITKLTKSTLDKMCAYAKIHHSDLPKMEYEHALLEAAKTIPVAIKRIEYFVWREIDNEDHLEMAVKNIYPHIVENEKLRAVRREVLLNPGPATTTDSVKYAQVSADICPREKAFGDLMQWLCDELKLFALASETNPDEYETVMFGCSGTGADEVMVSSCVPDTGRLLVIDNGSYGARMAKIADIYKIPMDIFKSSTYEPLDLQKLEAEFATKKYTHLACVYHETTTGLLNPLHIICPMAKKYGMVTIVDAVSAYCGMPMDLKSLGIDFMASTSNKNIQGMAGVGFVICNKAELEKTKDYPMRNYYLNLYDQYAYFAKTHQTRFTPPVQTMYALRQAVLETKQETVQKRYERYTACWNILVAAIKKLGLKMLVKEEHQSHFITAILEPETPKYSFEALHDFAAEHSFTIYPGKLGNIDTFRIANIGDIQPEEMRRFTVKLKEYMNGIGVGV
  Km: 16 ± 5 µM
